Test results published in patent US20240376200A1 (Seagen, published 2024).
Substitutions are numbered along the chain they refer to. In names and notes the source's numbering stands. Like-named read-outs stand apart in the source and are kept apart here. Each block holds one binder with its values, some of them ahead of it.

Experiments:
recombinant human CD47 [1] = target: T1, recombinant human CD47 (human, UniProt Q08722 19-139, limits assumed); test: saturation binding ELISA
T1 construct: also called recombinant CD47 antigen

recombinant human CD47 [2] = target: T1, recombinant human CD47; test: saturation binding ELISA; remark: listed apart in the source
[3] = circular dichroism thermal denaturation at 222 nm
[4] = target: T2, Coil 10 heavy chain peptide for CD studies (VelB L24I); test: circular dichroism thermal denaturation at 222 nm, 150 µM total peptide
T2 construct: also called Coil 10 (L24I); L24I VelB variant
T2 peptide: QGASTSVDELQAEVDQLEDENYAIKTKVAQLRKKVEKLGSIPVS

[5] = target: T3, Vel heavy chain peptide for CD studies (VelB); test: as above
T3 construct: also called VelB (heavy chain) peptide; VelB1
T3 peptide: T2 peptide with I24L

[6] = target: T4, Coil 148 heavy chain peptide for CD studies (VelB L24I/V28L); test: as above
T4 construct: also called Coil 148 (L24I/V28L)
T4 peptide: T2 peptide with V28L

EC50 (recombinant human CD47 [1]): 2.55 nM
EC50 (recombinant human CD47 [2]): 2.55 nM
B1: hB6H12.3 (unmasked anti-CD47 antibody) (antibody, V domains shown)
VH: EVQLLESGGGLVQPGGSLRLSCAASGFTFSGYGMSWVRQAPGKRLEWVATITSGGTYTYYPDSVKGRFTISRDNSKNTLYLQMNSLRAEDTAIYFCARSLAGNAMDYWGQGTLVTVSS
VL: EIVMTQSPDFQSVTPKEKVTLTCRASQTISDYLHWYQQKPDQSPKLLIKFASQSISGVPSRFSGSGSGSDFTLTINSLEAEDAATYYCQNGHGFPRTFGQGTKLEIKR

EC50 (recombinant human CD47 [1]): 494 nM
EC50 fold change from hB6H12.3 (recombinant human CD47 [1]): 194 fold
B2: Vel-IPV-hB6H12.3 (wild-type Vel mask, Coil 1) (antibody, V domains shown)
VH: B1 VH
VL: EIVMTQSPDFQSVTPKEKVTLTCRASQTISDYLHWYQQKPDQSPKLLIKFASQSISGVPSRFSGSGSGSDFTLTINSLEAEDAATYYCQNGHGFPRTFGQGTKLEIK

B3: Coil 10 light chain peptide for CD studies (VelA L24A) (peptide)
peptide: QGASTTVAQLEEKVKTLRAENYEAKSEVQRLEEQVAQLGSIPVS
notes: also called Coil 10 (L24A); L24A VelA variant
Tm (melting temperature of the light chain homodimer) [3]: Tm=<20 °C
Tm (melting temperature of the heterodimer) [4]: 28.6 ° C.

B4: Vel light chain peptide for CD studies (VelA) (peptide)
peptide: B3 peptide with A24L
notes: also called VelA (light chain) peptide; VelA1
Tm (melting temperature of the light chain homodimer) [3]: Tm=35.7 °C
Tm (melting temperature of the heterodimer) [5]: 57.6 ° C.

Binder: QGASTTVAQLEEKVKTLRAENYEAKSELQRLEEQVAQLGSIPVS (also called Coil 148 (L24A/V28L)) [Coil 148 light chain peptide for CD studies (VelA L24A/V28L)]
Tm (melting temperature of the light chain homodimer) [3]: Tm=<20 °C
Tm (melting temperature of the heterodimer) [6]: 39.7 ° C.
